# Measurements published in IntAct's records for PubMed 20956295.
# B1: Tumor necrosis factor receptor superfamily member 6 (Homo sapiens), P25445-1 (parent)
# chain: MLGIWTLLPLVLTSVARLSSKSVNAQVTDINSKGLELRKTVTTVETQNLEGLHHDGQFCHKPCPPGERKARDCTVNGDEPDCVPCQEGKEYTDKAHFSSKCRRCRLCDEGHGLEVEINCTRTQNTKCRCKPNFFCNSTVCEHCDPCTKCEHGIIKECTLTSNTKCKEEGSRSNLGWLCLLLLPIPLIVWVKRKEVQKTCRKHRKENQGSHESPTLNPETVAINLSDVDLSKYITTIAGVMTLSQVKGFVRKNGVNEAKIDEIKNDNVQDTAEQKVQLLRNWHQLHGKKEAYDTLIKDLKKANLCTLAEKIQTIILKDITSDSENSNFRNEIQSLV
# Variants of: B1
# Settings: with cav1_human CAV1, Q03135
# Chain of cav1_human CAV1, Q03135 (Q03135 whole entry): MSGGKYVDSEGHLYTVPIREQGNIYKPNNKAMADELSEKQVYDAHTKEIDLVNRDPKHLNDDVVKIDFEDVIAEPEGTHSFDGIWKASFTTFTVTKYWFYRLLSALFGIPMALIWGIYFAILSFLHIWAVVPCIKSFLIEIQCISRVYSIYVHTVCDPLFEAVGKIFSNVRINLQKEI
row,Variant,effect of a mutation on the interaction
1,MLGIWTLLPLVLTSVARLSSKSVNAQVTDINSKGLELRKTVTTVETQNLEGLHHDGQFCHKPCPPGERKARDCTVNGDEPDCVPCQEGKEYTDKAHFSSKCRRCRLCDEGHGLEVEINCTRTQNTKCRCKPNFFCNSTVCEHCDPCTKCEHGIIKECTLTSNTKCKEEGSRSNLGWLCLLLLPIPLIVWVKRKEVQKTSRKHRKENQGSHESPTLNPETVAINLSDVDLSKYITTIAGVMTLSQVKGFVRKNGVNEAKIDEIKNDNVQDTAEQKVQLLRNWHQLHGKKEAYDTLIKDLKKANLCTLAEKIQTIILKDITSDSENSNFRNEIQSLV [C199S],disrupting interaction
